# Experimental data from the supplement of paper PMC9732359.
# ± gives the uncertainty stated by the source.
# Assay: protein stability index of a GFP-peptide fusion (yeast GPS) (PSI 1-4); higher = more stable; sorted into four equal gates, so the index is relative within each strain
# Details: ubr1∆
# How it was run: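 For each peptide, the protein stability index sums the read frequency in every gate after multiplying it by the gate number. Read frequencies came from plasmids that were PCR-amplified from each gate and Illumina-sequenced, with reads assigned to strains by barcodes. The gates were four equal bins of GFP/Cherry fluorescence ratio applied to mid-log yeast in leucine-free medium carrying a pooled library of tiled 17-residue yeast protein peptides fused downstream of GFP on a Cherry-expressing plasmid.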
row,Sequence,protein stability index
1,HLLVQLQKNDVYAFKAK [REC8],3.15 ± 0.074
2,HLMSWSKTGIIAYSDSQ [SIN4],2.2 ± 0.2
3,HLRSNILKDLIYRGVLN [SMC1],1.74 ± 0.056
4,HNKLNITSDALEGITTT [SMC3],3.1 ± 0.092
5,HNLHPQIGQVPLAPAPI [SNF5],2.76 ± 0.063
6,HPQDFGNPGRIRVLFKE [SEC65],3.11 ± 0.061
7,HQFHDILEEKTDLHLPK [NSL1],2.38 ± 0.054
8,HRLLQRALFRQLKRWYW [RMP1],1.35 ± 0.11
9,HRSKKDQDQYLEIAKDF [IRR1],3.6 ± 0.27
10,HSGELMRQQSKELQQLQ [SMC1],2.7 ± 0.27
11,HSISEAENMLEELRGQQ [SMC4],3.2 ± 0.079
12,HSNLEKISNSKLLSLLR [SIR4],2.48 ± 0.047
13,HTPMVNFESISARSSVH [SRB8],2.12 ± 0.025
14,HTQDIIGGMRVDENGDP [RET1],3.37 ± 0.054
15,HTSSNSREIAQPSSSRY [SMB1],3.22 ± 0.058
16,HVKVNDKKEMTIYNNIR [SIR3],3.228 ± 0.032
17,HVPEKKSTDLTPKGNES [MTR3],3.11 ± 0.096
18,HWNLPGERIFNKIRNLE [SIR2],3.29 ± 0.068
19,IAAGTYGKVYKAKRQIN [SSN3],2.29 ± 0.048
20,IAFDDLIENKIQNKKIQ [RPN8],2.71 ± 0.05
21,IAIAGTGQIEGLLDYMR [COR1],3.15 ± 0.057
22,IAKLSVIPIRRGYWGTN [RPS2],1.76 ± 0.12
23,IALGEDIGKEMSLRHFG [RPN1],3.34 ± 0.14
24,IALNLDTTVNDCLDKLL [SNF2],2.9 ± 0.073
25,IAMPKRRMAFKPFGSAK [YLR335W/NUP2],2.73 ± 0.044
26,IANMVLPPEKIYSPLHS [SIR2],1.67 ± 0.032

row,Sequence,protein stability index
1,IASTLGPSAMRLSRCIR [RPC82],2.4 ± 0.055
2,IAYSDSQSSNANICLTF [SIN4],2.89 ± 0.069
3,IDEIAYLFHNDRIIHTW [ECM29],1.66 ± 0.043
4,IDEKSQFVETIVSKSIE [RPN2],1.98 ± 0.089
5,IDETMMDKPLNFRILKS [SRB5],2.79 ± 0.13
6,IDLEAPVQIVKRITQIT [RPS20],2.2 ± 0.094
7,IDMHLIYGVEWLIEGKL [YDL116W/NUP84],2.33 ± 0.099
8,IDMIADENGTNSAIANE [RPC37],3.17 ± 0.11
9,IDNYITNSVRLFEVNPS [SRP21],2.28 ± 0.12
10,IDQAHVSEITKLKFFPS [RPN14],3.28 ± 0.053
11,IDREGNARKVVGASVVV [RPS12],3.31 ± 0.22
12,IDRGLFRSLFFRSYMDQ [RPB2],2.94 ± 0.084
13,IDSINGPDTKGQLEDFD [SMC3],3.31 ± 0.1
14,IDSSNLPLQAQQQLYGG [SWI1],2.87 ± 0.043
15,IDYSNSQIRLYAKFKRN [RGR1],2.8 ± 0.057
16,IEAASTTQDQCKLTLDI [RPB8],3.07 ± 0.078
17,IEAGRAALYKEVYNVIA [RPO21],2.82 ± 0.11
18,IEAIDEYNKPNSEKFVF [ISW2],3.15 ± 0.075
19,IEGMEQRIIKELSIRFP [ARP7],2.26 ± 0.099
20,IEKTESVDKKVDSGEER [SWI3],3.46 ± 0.066
21,IELIDYDKLPAGQNATV [RET1],2.4 ± 0.068
22,IELLSYLVEAPWNDDYP [YML103C/NUP188],2.49 ± 0.17
23,IEPLEINIQSFKDVEHI [BRR2],2.67 ± 0.068
24,IEQLFPVRPVRVRHEDV [RPC53],3.03 ± 0.037
25,IERLTKRQFNNSYWLII [ITC1],2.13 ± 0.071
26,IESFVELGVSIYDFPGT [NUT2],2.2 ± 0.038

row,Sequence,protein stability index
1,IFCVGSGQTFAYGVLDS [PRE2],2.33 ± 0.073
2,IFGSGFGSADDTYPYLT [FAS1],2.1 ± 0.078
3,IFHPMIHYSWSFILYYR [YML103C/NUP188],1.98 ± 0.048
4,IFNSNKAKIIPGNGKHA [SIR4],2.2 ± 0.093
5,IFSYGPHIQKMLSILEI [POP6],2.24 ± 0.073
6,IFSYLQFTSSLFKALKV [RGR1],1.05 ± 0.056
7,IFTDFLPSSNGSSRIIA [RRP42],2.8 ± 0.069
8,IGEFNVSMYQNSSTSST [YDL088C/ASM4],2.17 ± 0.098
9,IGFTIKEYENHSGELMR [SMC1],2.86 ± 0.14
10,IGGMRVDENGDPIWQHQ [RET1],3.42 ± 0.092
11,IGHLIKTRFKGSQFIVV [SMC2],3.14 ± 0.08
12,IGQIIFSVRTKDSNKDV [RPL10],2.79 ± 0.051
13,IHEIRLNTLNNVVEIWV [SIR3],1.55 ± 0.038
14,IHIQETQEFSKNYTTET [SIR3],3.31 ± 0.069
15,IHLNELLTNDESAFENL [SNF12],3.03 ± 0.053
16,IHSGVLSSIESDLKKRE [YMR153W/NUP53],3.09 ± 0.074
17,IIAVKGSGSRLNRLPAA [RPL23A],1.42 ± 0.049
18,IIDHIPGHSLLLSIKLP [SNF5],2.23 ± 0.04
19,IIEQLSIAAERYDYSDE [YCG1],2.59 ± 0.032
20,IIFNYVPGPGTKLIQYE [CSL4],2.84 ± 0.098
21,IIGTFSDSYKVSLQNFS [RRP40],1.96 ± 0.054
22,IIKGTDVYSPEKGSWEQ [BRR2],3.25 ± 0.13
23,IIKMTIPYAAKLLFQEL [RET1],1.9 ± 0.073
24,IIKYPVAFDNINTHIET [SNF2],1.85 ± 0.067
25,IILKTRQINKLIDSLPG [SRB7],2.51 ± 0.058
26,IIPTTLEEQQQLEDESS [YML103C/NUP188],2.86 ± 0.099

row,Sequence,protein stability index
1,IISSNENALIELKNELA [YIL149C/MLP2],3.07 ± 0.12
2,IKDEIDDPFTKINTRGA [SWI1],2.12 ± 0.16
3,IKKKKKKSKNGTISKTG [SRP14],3.54 ± 0.11
4,IKLDRWLMEGSYQKAWD [RPN12],2.68 ± 0.11
5,IKNLTVQLSPSNPQHII [RGR1],2.67 ± 0.049
6,IKSKADAWVSAAHYNRE [PRP8],1.7 ± 0.11
7,IKSQYYSRISKLKQLLD [YIL149C/MLP2],1.45 ± 0.068
8,IKTFLVDLTSSNFADSA [YDL116W/NUP84],2.76 ± 0.069
9,IKTQQHILPEVPPVENF [TAF14],2.95 ± 0.073
10,ILGMLSLADNEIALKGL [YCS4],2.25 ± 0.056
11,ILHVRAQYCYKNGLYQE [SRP72],3.25 ± 0.057
12,ILKEEFPKIDSLAQNDC [RPN5],3.38 ± 0.065
13,ILMQQQMMARMAQTATQ [SRP54],2.63 ± 0.1
14,ILQILNLMILNTKVPVD [YML103C/NUP188],1.34 ± 0.1
15,ILSDSPLELSAPIGKHY [DIS3],2.39 ± 0.17
16,ILSVKLAELINMTTIAD [SRB6],2.85 ± 0.068
17,ILTPESQLKKSKAQQKT [RPL7A],2.98 ± 0.056
18,ILYGLVDKGAIMKNKDF [YJL039C/NUP192],1.58 ± 0.15
19,IMRILKSNGLAPEIPED [RPS13],2.91 ± 0.057
20,INAEEIVDFTLPPPPPP [PRP8],3.04 ± 0.045
21,INGWELTKAQKYLEQVL [RPL17A],3.36 ± 0.046
22,INHTILGKLQDVFNLLP [RPN8],2.96 ± 0.046
23,INKQRVPLSDNAIIEAN [RPL7A],2.54 ± 0.053
24,INLRKVAEKMNGCSGAD [RPT6],3.07 ± 0.29
25,INMADRSLGLQQVVCIF [POP6],1.06 ± 0.11
26,INPESREIVMPAHTKYM [ITC1],2.18 ± 0.11
